This note sets out measurements from patent publication US20060275764.

The series deals with Mannan-binding lectin (MBL), P11226.
Mannan-binding lectin (MBL), P11226, sequence (P11226 21-248): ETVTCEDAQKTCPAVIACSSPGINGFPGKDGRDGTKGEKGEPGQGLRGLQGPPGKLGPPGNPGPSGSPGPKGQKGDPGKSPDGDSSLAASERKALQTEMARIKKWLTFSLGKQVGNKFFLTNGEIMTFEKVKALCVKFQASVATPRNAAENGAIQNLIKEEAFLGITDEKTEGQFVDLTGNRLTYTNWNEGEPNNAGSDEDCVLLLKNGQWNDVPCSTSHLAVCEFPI

B1: MASP-2 (MBL-associated serine protease 2), wild type, recombinant (protein)
chain: TPLGPKWPEPVFGRLASPGFPGEYANDQERRWTLTAPPGYRLRLYFTHFDLELSHLCEYDFVKLSSGAKVLATLCGQESTDTERAPGKDTFYSLGSSLDITFRSDYSNEKPFTGFEAFYAAEDIDECQVAPGEAPTCDHHCHNHLGGFYCSCRAGYVLHRNKRTCSALCSGQVFTQRSGELSSPEYPRPYPKLSSCTYSISLEEGFSVILDFVESFDVETHPETLCPYDFLKIQTDREEHGPFCGKTLPHRIETKSNTVTITFVTDESGDHTGWKIHYTSTAQPCPYPMAPPNGHVSPVQAKYILKDSFSIFCETGYELLQGHLPLKSFTAVCQKDGSWDRPMPACSIVDCGPPDDLPSGRVEYITGPGVTTYKAVIQYSCEETFYTMKVNDGKYVCEADGFWTSSKGEKSLPVCEPVCGLSARTTGGRIYGGQKAKPGDFPWQVLILGGTTAAGALLYDNWVLTAAHAVYEQKHDASALDIRMGTLKRLSPHYTQAWSEAVFIHEGYTHDAGFDNDIALIKLNNKVVINSNITPICLPRKEAESFMRTDDIGTASGWGLTQRGFLARNLMYVDIPIVDHQKCTAAYEKPPYPRGSVTANMLCAGLESGGKDSCRGDSGGALVFLDSETERWFVGGIVSWGSMNCGEAGQYGVYTKVINYIPWIENIISDF
In the case of B1, the “MBL pathway activity (C4b deposition in mannan coated wells)” value is “Restoration of the MBL pathway was also achieved by adding recombinant MASP-2 to the patient serum”.
